From patent publication US20180251563A1 (SUBDOMAIN, published 2018)

These binders were tested against human PD-L1 (human, UniProt Q9NZQ7 19-238, limits assumed) (assay: ELISA, FLAG-tagged pb04 on immobilised Human PDL1-Fc).
Procedure: (§1) FIG. 16A establishes that a soluble DBDpp selected for binding to human PD-L1 (pb04 in this nonlimiting embodiment), can also bind PD-L1 of cynomolgus (Macaca fascicularis), as assessed by ELISA. Human PD-L1 or cynomolgus PD-L1 was immobilized in separate wells of an ELISA plate. Soluble DBDpp (FLAG tagged) directed against PD-L1 was incubated in the respective plates to assess the degree of binding with PD-L1 from each species. As shown, pb04 DBDpp binds to both human and cynomolgus PD-L1.

Chain of human PD-L1 (Q9NZQ7 19-238 limits assumed): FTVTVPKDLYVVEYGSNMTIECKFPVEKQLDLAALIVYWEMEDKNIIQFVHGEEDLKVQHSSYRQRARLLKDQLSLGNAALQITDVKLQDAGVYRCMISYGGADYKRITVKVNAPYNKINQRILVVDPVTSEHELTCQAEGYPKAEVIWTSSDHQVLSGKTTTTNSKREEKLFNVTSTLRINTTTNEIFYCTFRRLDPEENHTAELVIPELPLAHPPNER

Row | EC50 [nM] | Binder
1 | 31.4 | FLAG-pb04 (designed binder, expressed and purified from E. coli; also called N-terminal FLAG tag fusion of pb04; soluble DBDpp (FLAG tagged) directed against PD-L1; not shown: N-terminal FLAG tag) MGSWYEFTVRLEAIHERLKALGGSEAELAAFEKEIAAFESELQAYKGKGNPEVEILRDDAAFIRRFLQAYRHN

The binders below were run against T1, cynomolgus PD-L1 (cynomolgus (Macaca fascicularis), UniProt G7PSE7 19-238) (assay: ELISA, FLAG-tagged pb04 on immobilised Cynomolgus PDL1-Fc).
T1 construct: also called PD-L1 of cynomolgus (Macaca fascicularis)
Procedure: as §1

T1 sequence (G7PSE7 entry or part of it): as the sequence (Q9NZQ7 19-238 limits assumed) above, with A33T, A34S, S62N, R68Q, Q82R, F173L, T185A, T192I, H215L counted along it

Row | EC50 [nM] | Binder
2 | 42.1 | FLAG-pb04 (designed binder, expressed and purified from E. coli; also called N-terminal FLAG tag fusion of pb04; soluble DBDpp (FLAG tagged) directed against PD-L1; not shown: N-terminal FLAG tag) MGSWYEFTVRLEAIHERLKALGGSEAELAAFEKEIAAFESELQAYKGKGNPEVEILRDDAAFIRRFLQAYRHN

Each binder was assayed against T2, PD-L1-Fc (UniProt Q9NZQ7 19-238) (assay: ELISA on PD-L1-Fc, in vitro translated DBDpp-6xHIS heated 2 minutes at 25-100 C and serially diluted, detection with anti-6xHIS-HRP).
T2 construct: purified recombinant target-Fc protein; also called FC-PD-L1; not shown: Fc
Procedure: DBDpp-6×HIS fusions (pb04 and pb06) and scFv-6×HIS fusions were expressed through in vitro transcription and translation reactions (NEB, PureExpress). Samples were diluted in ELISA blocking buffer (Thermo Fisher) 30 fold. Individual samples were subsequently incubated at either 25° C., 40° C., 55° C., 70° C. or 100° C. for 2 minutes and then rapidly returned to room temperature. The temperature increase, followed by rapid cooling can cause denaturation of the protein or other breakdown of the three-dimensional structure of proteins that reduce target interaction and/or binding. The ability of proteins to bind with a ligand, such as a target tumor antigen, after being exposed to denaturing conditions indicates either enhanced stability during exposure to elevated temperature or an ability to re-fold and maintain function after exposure. […]
The heat-exposed samples were serially diluted in ELISA buffer and measured for binding to PD-L1-Fc in ELISA. Bound proteins were detected with HRP-conjugated rabbit anti-6×HIS polyclonal antibody (Abcam). […] Since this particular scFv is not configured to bind PD-L1, this function as a negative control, and as expected, no binding is detected for any of the DR5 scFv, regardless of the temperatures they were exposed to. […]

T2 sequence (Q9NZQ7 19-238 limits assumed): as the sequence (Q9NZQ7 19-238 limits assumed) above

Row | binding result | Binder
3 | binds | pb06 DBDpp-6xHIS fusion (designed binder, made by in vitro transcription and translation; not shown: 6xHIS tag) MGSWYEFDDRLNAIHDRLQALGGSEAELAAFEKEIAAFESELQAYKGKGNPEVEDLRDDAAFIRRFLQAYRHN

These binders were tested against PD-L1 (target of Example 25) (UniProt Q9NZQ7 19-238, limits assumed) (assay: library selection; assay not described).
Chain of PD-L1 (target of Example 25) (Q9NZQ7 19-238 limits assumed): as the sequence (Q9NZQ7 19-238 limits assumed) above

Row | binding result | Binder
4 | binds | SEQ ID NO 186 (designed binder) MGSWTEFEQRLEAIHNRLQALGGSEAELAAFEKEIAAFESELQAYKGKGNPEVEELRNDAAFIRHFLQAYRHN
5 | binds | SEQ ID NO 184 (designed binder, also called pb06) MGSWYEFDDRLNAIHDRLQALGGSEAELAAFEKEIAAFESELQAYKGKGNPEVEDLRDDAAFIRRFLQAYRHN
6 | binds | SEQ ID NO 185 (designed binder) MGSWNEFKNRLDAIHKRLNALGGSEAELAAFEKEIAAFESELQAYKGKGNPEVENLRDDAAFIRHFLQAYRHN
7 | binds | SEQ ID NO 181 (designed binder) MGSWNEFHDRLNAIHARLHALGGSEAELAAFEKEIAAFESELQAYKGKGNPEVENLRDDAAFIRRFLQAYRHN
8 | binds | SEQ ID NO 183 (designed binder) MGSWKEFDDRLNAIKARLQALGGSEAELAAFEKEIAAFESELQAYKGKGNPEVEDLRDDAAFIRRFLQAYRHN

Each binder was assayed against T3, CD47-Fc (UniProt Q08722 19-139) (assay: phage ELISA, target-Fc against non-specific control).
T3 construct: purified recombinant target-Fc protein; not shown: Fc
Procedure: (§2) Selections were also performed using F1, F2, F3, C1 & C2 trinucleotide phosphoramidite libraries. In most cases, libraries were pooled prior to use in selection. By combining equal volumes of the individual libraries, Pool F (libraries F1, F2 and F3) and Pool C (libraries C1 and C2) were generated. These libraries were used in selections for DBDpp binders to 4-1BB/CD137 as well as a larger panel of purified recombinant “target”-Fc proteins, including CD47, CTLA4, DR5, KIR, LAG3, OX40, PD1, PD-L1 and TIM3. (Many of these targets are considered immuno-regulatory factors (Pardoll et al., Nat. Rev. Cancer 12:252-264 (2012)). After incubation of the target with the pools of DBDpp phage libraries, bound phage-target complexes were captured and separated from unbound phage with protein A beads (target proteins were Fc fusions). After three rounds of selection, rescued phage clones were screened by ELISA for binding to the selected target.
(§3) For each target, approximately 90 DBDpp phage clones were screened by ELISA for binding to the target protein and as well as a non-specific control (e.g., IgG1-Fc). […] In some instances, for the ELISA screening plate in which the majority of DBDpp clones were positive, the entire plate was sequenced.

T3 sequence (Q08722 19-139 limits assumed): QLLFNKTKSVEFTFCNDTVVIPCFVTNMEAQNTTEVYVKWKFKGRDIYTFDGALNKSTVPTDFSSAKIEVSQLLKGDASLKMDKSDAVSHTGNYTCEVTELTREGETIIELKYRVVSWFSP

Row | ELISA ratio (target to background) [ratio] | Binder
9 | 8.23 | SEQ ID NO 23 (designed binder) MGSWTEFVGRLAAIEFRLWALGGSEAELAWFEAHIAFFEDYLQWYKGKGNPEVEALREEAGAIMEELKAYRHN
10 | 12.5 | SEQ ID NO 21 (designed binder) MGSWTEFTYRLSAIEWRLWALGGSEAELAWFEQKIAFFEDFLQYYKGKGNPEVEALKHEAGAILNELMAYRHN
11 | 14.1 | SEQ ID NO 20 (designed binder) MGSWYEFDLRLHAIYDRLVALGGSEAELAAFEKEIAAFESELQAYKGKGNPEVEILRDNAAYIRQMLQAYRHN
12 | 11.7 | SEQ ID NO 22 (designed binder) MGSWAEFDHRLHAIRERLHALGGSEAELAAFEKEIAAFESELQAYKGKGNPEVEILRGNAAYIRALLQAYRHN
13 | 4.58 | SEQ ID NO 24 (designed binder) MGSWTEFYSRLEAIWVRLQALGGSEAELAMFEDRIAHFEWFLQQYKGKGNPEVEALHEEAIAIRKELAAYRHN

These binders were tested against T4, PD1-Fc (UniProt Q15116 25-167) in the same assay as above.
T4 construct: purified recombinant target-Fc protein; not shown: Fc
Procedure: as §2, §3

T4 sequence (Q15116 25-167 limits assumed): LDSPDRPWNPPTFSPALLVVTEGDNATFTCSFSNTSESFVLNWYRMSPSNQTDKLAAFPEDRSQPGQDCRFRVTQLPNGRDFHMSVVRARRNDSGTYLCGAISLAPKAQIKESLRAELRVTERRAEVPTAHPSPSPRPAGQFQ

Row | ELISA ratio (target to background) [ratio] | Binder
14 | 8.13 | SEQ ID NO 47 (designed binder) MGSWVMFKWLLADIKSHLEALGGSEAELAFFEGFIAAFETHLQVYKGKGNPEVEALRKEAAAIRDELQAYRHN
15 | 17.1 | SEQ ID NO 46 (designed binder) MGSWTIFKEWLAFIKTDLEALGGSEAELAFFEGWIASFEMELQKYKGKGNPEVEALRKEAAAIRDELQAYRHN
16 | 3.29 | SEQ ID NO 48 (designed binder) MGSWYAFKDYLADIKGWLEALGGSEAELAFFEIFIARFELELQAYKGKGNPEVEALRKEAAAIRDELQAYRHN

Each binder was assayed against T2, PD-L1-Fc in the same assay as above.
Procedure: as §2, §3

Row | ELISA ratio (target to background) [ratio] | Binder
17 | 6.01 | SEQ ID NO 41 (designed binder) MGSWFEFQDRLTAINERLSALGGSEAELAAFEKEIAAFESELQAYKGKGNPEVETLRSDAAFIRRFLQAYRHN
18 | 2.98 | SEQ ID NO 43 (designed binder) MGSWYEFNHRLDAISKRLNALGGSEAELAAFEKEIAAFESELQAYKGKGNPEVEELRGDAAFIRHFLQAYRHN
19 | 7.41 | SEQ ID NO 39 (designed binder) MGSWQEFDDRLNAIKARLQALGGSEAELAAFEKEIAAFESELQAYKGKGNPEVEDLRDDAAFIRRFLQAYRHN
20 | 6.34 | SEQ ID NO 40 (designed binder) MGSWYEFQNRLHAIHERLNALGGSEAELAAFEKEIAAFESELQAYKGKGNPEVELLRDDAAFIRHFLQAYRHN
21 | 8.68 | SEQ ID NO 38 (designed binder) MGSWTEFQSRLDAIHSRLRALGGSEAELAAFEKEIAAFESELQAYKGKGNPEVELLRDDAAFIRHFLQAYRHN
22 | 4.88 | SEQ ID NO 42 (designed binder) MGSWYEFESRLDAIHERLHALGGSEAELAAFEKEIAAFESELQAYKGKGNPEVENLRGDAAFIRHFLQAYRHN
23 | 2.76 | SEQ ID NO 44 (designed binder) MGSWFEFENRLHAIVHRLGALGGSEAELAAFEKEIAAFESELQAYKGKGNPEVETLRADAAFIRHYLQAYRHN

These binders were tested against T5, recombinant, biotinylated, Human 4-1BB/TNFRSF9/CD137-Fc (human, UniProt Q07011 24-186, biotinylated (F2NNK selection)) in the same assay as above.
T5 construct: also called 4-1BB/CD137; not shown: Fc
Procedure: as §2, §3

T5 sequence (Q07011 24-186 limits assumed): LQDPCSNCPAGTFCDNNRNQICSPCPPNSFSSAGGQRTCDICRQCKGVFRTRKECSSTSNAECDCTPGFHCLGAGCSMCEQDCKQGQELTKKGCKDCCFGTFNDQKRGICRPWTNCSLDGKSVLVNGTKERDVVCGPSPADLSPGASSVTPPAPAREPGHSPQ

Row | ELISA ratio (target to background) [ratio] | Binder
24 | 12 | SEQ ID NO 15 (designed binder) MGSWYEFSMRLWAIDQRLYALGGSEAELAAFEKEIAAFESELQAYKGKGNPEVEALRAKAAYIRWKLQAYRHN
25 | 7.26 | SEQ ID NO 18 (designed binder) MGSWYEFHYRLHAIDQRLYALGGSEAELAAFEKEIAAFESELQAYKGKGNPEVEELRIKAAFIRDRLQAYRHN
26 | 16.1 | SEQ ID NO 13 (designed binder) MGSWVEFANRLWAIDQRLFALGGSEAELAAFEKEIAAFESELQAYKGKGNPEVEHLRDQAAFIRHKLQAYRHN
27 | 7.71 | SEQ ID NO 17 (designed binder) MGSWYEFGHRLWAIDQRLYALGGSEAELAAFEKEIAAFESELQAYKGKGNPEVEYLRETAAHIRTRLQAYRHN
28 | 11.9 | SEQ ID NO 16 (designed binder) MGSWFEFNHRLWAINERLYALGGSEAELAAFEKEIAAFESELQAYKGKGNPEVERLRSMAAFIRYKLQAYRHN
